Measured values: article PMC7144274

Biological target: soluble MERTK ectodomain (MERTK^ED-His)
Test: SPR; Biacore T200, room temperature; […]; HBS-EP (10 mM HEPES pH 7.4, 150 mM NaCl, 0.05% Tween 20)

## CSFV E2 ectodomain (E2^ED-His) (domain or fragment)
  Kd: 1.63 µM
